Biological target: T1, LexA-TFIIB fusion protein (UniProt P29055 1-345)
T1 sequence (looked up): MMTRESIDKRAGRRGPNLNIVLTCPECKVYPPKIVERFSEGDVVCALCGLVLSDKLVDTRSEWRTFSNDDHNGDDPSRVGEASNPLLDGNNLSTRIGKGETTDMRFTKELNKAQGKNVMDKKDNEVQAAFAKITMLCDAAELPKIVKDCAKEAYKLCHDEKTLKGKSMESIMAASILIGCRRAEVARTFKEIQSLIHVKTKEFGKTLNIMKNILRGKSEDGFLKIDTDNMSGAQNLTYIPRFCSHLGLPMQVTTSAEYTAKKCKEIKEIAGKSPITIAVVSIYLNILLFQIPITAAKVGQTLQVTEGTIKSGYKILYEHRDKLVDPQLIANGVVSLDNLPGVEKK
Experiment: cell-based or functional assay

- transcriptional activity (beta-gal reporter) of W7 fused to LexA, relative to the native pentapeptide WYDWW fused to LexA: ~3 fold
Binder: WWWWWWW [B42-W7 fusion protein (heptatryptophan, W7)]

From publication PMC2992532, “A tryptophan-rich peptide acts as a transcription activation domain” (BMC Molecular Biology, 2010)
